Measurements as given in US20210008207A1 (TECHNISCHE UNIVERSIT T M NCHEN, published 2021).

T1: CEACAM8 (human (species not restated for this …, UniProt P31997))
T1 sequence: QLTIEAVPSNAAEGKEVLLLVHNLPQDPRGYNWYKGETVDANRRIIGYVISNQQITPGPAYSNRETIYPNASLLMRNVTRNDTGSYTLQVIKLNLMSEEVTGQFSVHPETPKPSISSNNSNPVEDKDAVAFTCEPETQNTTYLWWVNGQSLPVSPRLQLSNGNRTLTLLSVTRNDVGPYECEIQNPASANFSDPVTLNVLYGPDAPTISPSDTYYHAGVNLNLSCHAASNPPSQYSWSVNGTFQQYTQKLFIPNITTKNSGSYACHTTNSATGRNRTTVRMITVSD

T2: CEACAM5 (human (species not restated for this …, UniProt P06731))
T2 sequence: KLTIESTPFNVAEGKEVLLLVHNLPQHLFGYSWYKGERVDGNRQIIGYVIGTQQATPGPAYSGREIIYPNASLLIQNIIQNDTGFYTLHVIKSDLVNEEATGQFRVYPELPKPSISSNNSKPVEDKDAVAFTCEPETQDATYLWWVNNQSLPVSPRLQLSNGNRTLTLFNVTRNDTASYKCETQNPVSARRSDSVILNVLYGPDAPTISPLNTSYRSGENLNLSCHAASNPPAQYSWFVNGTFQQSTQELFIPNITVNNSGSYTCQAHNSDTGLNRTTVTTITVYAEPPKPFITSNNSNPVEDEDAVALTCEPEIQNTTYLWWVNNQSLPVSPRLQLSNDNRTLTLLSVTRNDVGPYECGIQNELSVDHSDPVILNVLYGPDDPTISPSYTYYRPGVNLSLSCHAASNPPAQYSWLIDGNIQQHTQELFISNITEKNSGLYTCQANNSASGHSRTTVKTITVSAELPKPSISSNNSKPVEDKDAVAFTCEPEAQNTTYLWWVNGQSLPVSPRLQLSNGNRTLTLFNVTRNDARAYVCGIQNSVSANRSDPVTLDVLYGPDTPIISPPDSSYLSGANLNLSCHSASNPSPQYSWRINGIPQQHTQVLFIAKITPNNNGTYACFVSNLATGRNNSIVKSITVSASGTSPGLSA

T3: recombinant human CEACAM1 N-domain (C1ND; residues 35-142) with C-terminal Strep-Tag II, made in Expi293 cells (human, UniProt P13688 35-142, N-glycosylated (three glycosylation forms beside the non-glycosylated protein))
T3 construct: range 35-142; also called N-terminal domain of human CEACAM1; huCEACAM1-ND; not shown: C-terminal Strep-Tag II
T3 sequence: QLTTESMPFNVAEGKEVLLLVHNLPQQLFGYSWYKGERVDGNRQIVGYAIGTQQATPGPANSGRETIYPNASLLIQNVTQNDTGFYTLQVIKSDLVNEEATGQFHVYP

T4: E. coli expressed human CEACAM1 N-domain (Ec-C1ND) with C-terminal His6 tag, non-glycosylated (human, UniProt P13688 35-142)
T4 construct: range 35-142; also called non-glycosylated N-terminal domain of human CEACAM1; hC1ND
T4 sequence: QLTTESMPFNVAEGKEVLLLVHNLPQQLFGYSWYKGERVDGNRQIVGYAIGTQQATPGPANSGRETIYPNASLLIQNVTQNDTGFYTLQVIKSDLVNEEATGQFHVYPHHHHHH

B1: HopQ^ADΔID, HopQ^AD in which amino acids 190-218 of the mature protein (the HopQ insertion domain) are replaced by two glycines (other)
chain: AVQKVKNADKVQKLSDTYEQLSRLLTNDNGTNSKTSAQAINQAVNNLNERAKTLAGGTTNSPAYQATLLALRSVLGLWNSMGYAVICGGYTKSPGENNQKDFHYTDENGNGTTINCGGSTNSNGTHSYNGTNTLKADKNVSLSIEQYEKIHEAYQILSKALKQAGLAPLNSKGGGDAQNLLTQAQTIVNTLKDYCPILIAKSSSSNGGTNNANTPSWQTAGGGKNSCATFGAEFSAASDMINNAQKIVQETQQLSANQPKNITQPHNLNLNSPSSLTALAQKMLKNAQSQAEILKLANQVESDFNKLSSGHLKDYIGKCDASAISSANMTMQNQKNNWGNGCAGVEETQSLLKTSAADFNNQTPQINQAQNLANTLIQELGNNPFRNMGMIASSTTNNGAHHHHHH
notes: also called HopQ-ID deletion mutant; mutant HopQ^AD lacking the HopQ-ID
B2: HopQ adhesin domain (HopQ^AD), type I HopQ fragment of H. pylori strain G27, residues 37-463 (residu (other)
chain: AVQKVKNADKVQKLSDTYEQLSRLLTNDNGTNSKTSAQAINQAVNNLNERAKTLAGGTTNSPAYQATLLALRSVLGLWNSMGYAVICGGYTKSPGENNQKDFHYTDENGNGTTINCGGSTNSNGTHSYNGTNTLKADKNVSLSIEQYEKIHEAYQILSKALKQAGLAPLNSKGEKLEAHVTTSKYQQDNQTKTTTSVIDTTNDAQNLLTQAQTIVNTLKDYCPILIAKSSSSNGGTNNANTPSWQTAGGGKNSCATFGAEFSAASDMINNAQKIVQETQQLSANQPKNITQPHNLNLNSPSSLTALAQKMLKNAQSQAEILKLANQVESDFNKLSSGHLKDYIGKCDASAISSANMTMQNQKNNWGNGCAGVEETQSLLKTSAADFNNQTPQINQAQNLANTLIQELGNNPFRNMGMIASSTTNNGAHHHHHH
notes: also called HopQ^AD I

How the values were obtained:
[1] = molecular target: T1, CEACAM8; experiment: ELISA, panel CEACAM8; protein titrated [cont.) f]
[2] = molecular target: T2, CEACAM5; experiment: ELISA, panel CEACAM5; HopQ fragment titrated [cont.) f]
[3] = molecular target: T3, recombinant human CEACAM1 N-domain …; experiment: ELISA, C1ND coated, His-tag detected
[4] = molecular target: T3, recombinant human CEACAM1 N-domain …; experiment: isothermal titration calorimetry, 25 °C; ITC in solution, folded glycosylated C1ND; stoichiometry, not affinity
[5] = molecular target: T3, recombinant human CEACAM1 N-domain …; experiment: ELISA; C1ND coated, HopQ fragment titrated, α-6×His-HRP detection
[6] = molecular target: T3, recombinant human CEACAM1 N-domain …; experiment: isothermal titration calorimetry, 25 °C; ITC in solution, folded glycosylated C1ND (FIG. 8a)
[7] = molecular target: T3, recombinant human CEACAM1 N-domain …; experiment: ITC; 25 µM C1ND in the cell titrated with 250 µM HopQ^AD, 25 °C
[8] = molecular target: T4, E. coli expressed human CEACAM1 …; experiment: ITC; 25 µM Ec-C1ND in the cell titrated with 250 µM HopQ^AD, 25 °C

Row | Binder | binding result [1] | EC50 (read off the curve) [2] | fold reduction of binding affinity against HopQ^AD [3] | stoichiometry [4] | EC50 (read off the curve) [5] | Kd [6] | ΔH [7] | ΔS [7] | Kd [8] | ΔH [8] | ΔS [8]
1 | B1 | no binding (tested: 10 µg/well) | ~0.08 µg/well | ~10 fold |  |  |  |  |  |  |  | 
2 | B2 | no binding (tested: 10 µg/well) | ~0.04 µg/well |  | 1 HopQ^AD per C1ND | ~0.2 µg/well | 296 nM | -13 kcal/mol | -13.7 cal/mol/deg | 417 nM | -16.7 kcal/mol | -26.8 cal/mol/deg
